B1: Protein CBFA2T1 (Homo sapiens), Q06455 (parent)
chain: MISVKRNTWRALSLVIGDCRKKGNFEYCQDRTEKHSTMPDSPVDVKTQSRLTPPTMPPPPTTQGAPRTSSFTPTTLTNGTSHSPTALNGAPSPPNGFSNGPSSSSSSSLANQQLPPACGARQLSKLKRFLTTLQQFGNDISPEIGERVRTLVLGLVNSTLTIEEFHSKLQEATNFPLRPFVIPFLKANLPLLQRELLHCARLAKQNPAQYLAQHEQLLLDASTTSPVDSSELLLDVNENGKRRTPDRTKENGFDREPLHSEHPSKRPCTISPGQRYSPNNGLSYQPNGLPHPTPPPPQHYRLDDMAIAHHYRDSYRHPSHRDLRDRNRPMGLHGTRQEEMIDHRLTDREWAEEWKHLDHLLNCIMDMVEKTRRSLTVLRRCQEADREELNYWIRRYSDAEDLKKGGGSSSSHSRQQSPVNPDPVALDAHREFLHRPASGYVPEEIWKKAEEAVNEVKRQAMTELQKAVSEAERKAHDMITTERAKMERTVAEAKRQAAEDALAVINQQEDSSESCWNCGRKASETCSGCNTARYCGSFCQHKDWEKHHHICGQTLQAQQQGDTPAVSSSVTPNSGAGSPMDTPPAATPRSTTPGTPSTIETTPR

Variants of: B1
Conditions: with ncor1_human NCOR1, O75376
Chain of ncor1_human NCOR1, O75376 (O75376 whole entry): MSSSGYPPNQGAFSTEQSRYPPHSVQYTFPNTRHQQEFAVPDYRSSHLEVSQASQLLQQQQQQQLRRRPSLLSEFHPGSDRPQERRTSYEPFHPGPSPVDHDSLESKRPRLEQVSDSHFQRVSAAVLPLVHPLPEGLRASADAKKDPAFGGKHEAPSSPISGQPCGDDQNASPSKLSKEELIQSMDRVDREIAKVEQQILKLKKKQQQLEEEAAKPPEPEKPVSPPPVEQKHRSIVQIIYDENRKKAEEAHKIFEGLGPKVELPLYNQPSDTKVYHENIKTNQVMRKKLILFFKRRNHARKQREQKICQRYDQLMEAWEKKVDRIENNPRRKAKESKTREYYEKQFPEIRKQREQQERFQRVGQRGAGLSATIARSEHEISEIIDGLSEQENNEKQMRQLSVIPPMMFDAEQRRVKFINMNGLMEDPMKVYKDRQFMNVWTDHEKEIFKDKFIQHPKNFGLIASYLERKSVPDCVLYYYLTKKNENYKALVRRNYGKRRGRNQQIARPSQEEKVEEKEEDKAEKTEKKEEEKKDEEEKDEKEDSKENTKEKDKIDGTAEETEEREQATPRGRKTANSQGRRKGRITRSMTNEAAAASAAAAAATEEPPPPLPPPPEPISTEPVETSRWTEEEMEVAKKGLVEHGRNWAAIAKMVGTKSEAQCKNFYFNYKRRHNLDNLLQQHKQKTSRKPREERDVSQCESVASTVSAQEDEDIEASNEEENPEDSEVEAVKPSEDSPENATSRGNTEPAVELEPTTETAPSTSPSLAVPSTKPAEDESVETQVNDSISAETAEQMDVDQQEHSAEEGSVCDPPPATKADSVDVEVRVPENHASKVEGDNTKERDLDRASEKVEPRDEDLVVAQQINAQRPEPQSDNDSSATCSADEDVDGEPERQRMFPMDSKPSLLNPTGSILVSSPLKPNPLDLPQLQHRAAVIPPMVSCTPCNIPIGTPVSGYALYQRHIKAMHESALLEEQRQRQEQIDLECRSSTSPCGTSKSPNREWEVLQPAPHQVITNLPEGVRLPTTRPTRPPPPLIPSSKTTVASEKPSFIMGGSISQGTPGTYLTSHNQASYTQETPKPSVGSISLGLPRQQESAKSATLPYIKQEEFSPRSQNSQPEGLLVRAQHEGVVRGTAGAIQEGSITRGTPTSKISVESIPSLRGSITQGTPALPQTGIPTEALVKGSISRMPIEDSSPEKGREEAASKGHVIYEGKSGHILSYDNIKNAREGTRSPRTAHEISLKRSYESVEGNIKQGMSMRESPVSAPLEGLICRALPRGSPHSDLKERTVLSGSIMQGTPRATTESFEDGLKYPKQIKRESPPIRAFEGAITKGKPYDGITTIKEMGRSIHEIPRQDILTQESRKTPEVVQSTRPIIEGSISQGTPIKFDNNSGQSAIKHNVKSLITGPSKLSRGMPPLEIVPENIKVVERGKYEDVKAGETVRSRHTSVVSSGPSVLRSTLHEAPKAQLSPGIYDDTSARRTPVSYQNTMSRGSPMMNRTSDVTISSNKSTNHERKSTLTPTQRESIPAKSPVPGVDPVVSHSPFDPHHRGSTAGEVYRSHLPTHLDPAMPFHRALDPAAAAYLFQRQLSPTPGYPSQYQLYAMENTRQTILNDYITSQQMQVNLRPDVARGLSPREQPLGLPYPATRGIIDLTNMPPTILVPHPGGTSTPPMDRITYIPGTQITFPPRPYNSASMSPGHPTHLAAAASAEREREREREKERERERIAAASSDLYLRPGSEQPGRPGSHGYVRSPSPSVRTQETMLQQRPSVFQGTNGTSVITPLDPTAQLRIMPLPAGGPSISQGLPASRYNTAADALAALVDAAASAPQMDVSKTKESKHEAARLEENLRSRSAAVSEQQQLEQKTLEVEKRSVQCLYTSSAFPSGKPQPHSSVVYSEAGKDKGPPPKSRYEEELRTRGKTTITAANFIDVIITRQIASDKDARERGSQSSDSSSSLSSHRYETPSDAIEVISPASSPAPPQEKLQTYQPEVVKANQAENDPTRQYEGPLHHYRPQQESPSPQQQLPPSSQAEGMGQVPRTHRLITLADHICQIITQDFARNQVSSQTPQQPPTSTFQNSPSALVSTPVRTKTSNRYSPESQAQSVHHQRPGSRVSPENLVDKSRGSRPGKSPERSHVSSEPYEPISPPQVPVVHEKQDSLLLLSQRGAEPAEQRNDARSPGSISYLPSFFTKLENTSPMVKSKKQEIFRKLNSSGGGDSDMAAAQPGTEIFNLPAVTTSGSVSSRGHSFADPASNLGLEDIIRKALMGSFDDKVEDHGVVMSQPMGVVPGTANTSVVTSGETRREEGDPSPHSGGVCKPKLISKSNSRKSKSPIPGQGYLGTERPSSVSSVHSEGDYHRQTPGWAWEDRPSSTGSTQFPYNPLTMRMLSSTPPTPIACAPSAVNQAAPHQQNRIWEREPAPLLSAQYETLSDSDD

Effect of a mutation on the interaction, decreasing interaction:
F136A
F129K
T173Q
F175A
L177A
Q170A

Source: IntAct's records for PubMed 17572682
